B1: Tyrosine-protein kinase-interacting protein (Saimiriine herpesvirus 2 (strain 488) (SaHV-2)), P22575 (parent)
chain: MANEGEEIELTEFPETEKERKDEEKLSSCSEETTNTSSSSGSDHVPVPIEVNVIIQNSSRTEDELQNSKEIELTGFQGKLSSCSEETTAPSSSYSSKQASVFIEENGDNETSTYRPQNVLTNLNSLYTTFEDARAQGKGMVRHKSEDLQSFLEKYPPDFRKPKRDLSATWDPGMPTPPLPPRPANLGERQASTVRLHVKESNCKQPRERKANERNIVKDLKRLENKINVIICLVVVILAVLLLVTVLSILHIGMKS

In the assay “lck_human LCK, P06239” the parent is B1. The note with it: with lck_human LCK.
The variants in the assay “cd4_human CD4, P01730” derive from B1. As to conditions: with cd4_human CD4, P01730.

Sequence of lck_human LCK, P06239 (P06239 whole entry, looked up): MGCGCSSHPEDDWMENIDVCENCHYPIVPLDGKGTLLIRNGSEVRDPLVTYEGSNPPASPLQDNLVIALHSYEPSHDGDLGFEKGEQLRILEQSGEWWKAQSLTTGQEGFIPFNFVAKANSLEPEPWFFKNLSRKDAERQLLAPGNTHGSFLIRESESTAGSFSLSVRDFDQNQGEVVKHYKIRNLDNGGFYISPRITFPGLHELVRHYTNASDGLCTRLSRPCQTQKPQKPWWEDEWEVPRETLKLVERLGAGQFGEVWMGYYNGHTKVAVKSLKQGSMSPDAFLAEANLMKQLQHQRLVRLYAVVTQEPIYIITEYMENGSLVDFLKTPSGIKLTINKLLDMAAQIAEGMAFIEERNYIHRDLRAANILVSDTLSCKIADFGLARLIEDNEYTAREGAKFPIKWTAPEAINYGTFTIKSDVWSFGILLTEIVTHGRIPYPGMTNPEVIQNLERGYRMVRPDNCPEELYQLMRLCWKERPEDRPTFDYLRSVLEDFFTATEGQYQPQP

For the variant P177A, in the assay with lck_human LCK, P06239, the “effect of a mutation on the interaction” value is listed as “decreasing interaction”.
P178A: the “effect of a mutation on the interaction” value is given as “decreasing interaction” with cd4_human CD4, P01730 and “decreasing interaction” with lck_human LCK, P06239.
Consider P180A, for which the “effect of a mutation on the interaction” value in the assay with cd4_human CD4, P01730 is “decreasing interaction”; with lck_human LCK, P06239, “decreasing interaction”.
In the case of P175A, the “effect of a mutation on the interaction” value in the assay with cd4_human CD4, P01730 is recorded as “decreasing interaction”; in the assay with lck_human LCK, P06239, “decreasing interaction”.
In the case of P183A, the “effect of a mutation on the interaction” value with cd4_human CD4, P01730 is “decreasing interaction”; with lck_human LCK, P06239 it was “decreasing interaction”.

Source of the values: IntAct's records for PubMed 17005671.
